Legend:
Assay in all cases: cell-based or functional assay
[1] = molecular target: HIV-1 Env of Q461.e2 (HIV-1)
[2] = molecular target: HIV-1 Env of CAP256.PI (HIV-1)
[3] = molecular target: HIV-1 Env of TRJO.58 (HIV-1)
[4] = molecular target: HIV-1 Env of RHPA.7 (HIV-1)
[5] = molecular target: HIV-1 Env of KER2018.11 (HIV-1)
[6] = molecular target: HIV-1 Env of Q769.d22 (HIV-1)
[7] = molecular target: HIV-1 Env of CAP244.D3 (HIV-1)
[8] = molecular target: HIV-1 Env of CAP256.SU (HIV-1)
[9] = molecular target: HIV-1 Env of CM244.ec1 (HIV-1)
[10] = molecular target: HIV-1 Env of C1080.c3 (HIV-1)
[11] = molecular target: HIV-1 Env of Q23.17 (HIV-1)
[12] = molecular target: HIV-1 Env of MB201 (HIV-1)
[13] = molecular target: HIV-1 Env of KER2008.12 (HIV-1)
[14] = molecular target: HIV-1 Env of ZM53.12 (HIV-1)
[15] = molecular target: HIV-1 Env of TH976.17 (HIV-1)
[16] = molecular target: HIV-1 Env of 96ZM651.02 (HIV-1)
[17] = molecular target: HIV-1 Env of 191821.E6.1 (HIV-1)
[18] = molecular target: HIV-1 Env of QH0692.42 (HIV-1)
[19] = molecular target: HIV-1 Env of CAP45.G3 (HIV-1)
[20] = molecular target: HIV-1 Env of ZM214.15 (HIV-1)
[21] = molecular target: HIV-1 Env of DU156.12 (HIV-1)
[22] = molecular target: HIV-1 Env of Q168.a2 (HIV-1)
[23] = molecular target: HIV-1 Env of ZM233.6 (HIV-1)
[24] = molecular target: HIV-1 Env of Q259.d2.17 (HIV-1)
[25] = molecular target: HIV-1 Env of MB539.2B7 (HIV-1)
[26] = molecular target: HIV-1 Env of 3016.V5.c36 (HIV-1)
[27] = molecular target: HIV-1 Env of BG505.w6m (HIV-1)
[28] = molecular target: HIV-1 Env of ZM197.7 (HIV-1)
[29] = molecular target: HIV-1 Env of CAAN.A2 (HIV-1)
[30] = molecular target: HIV-1 Env of DU422.01 (HIV-1)
[31] = molecular target: HIV-1 Env of Q842.d12 (HIV-1)
[32] = molecular target: HIV-1 Env of WITO.33 (HIV-1)
[33] = molecular target: HIV-1 Env of CAP210.E8 (HIV-1)
[34] = molecular target: HIV-1 Env of 6405.v4.c34 (HIV-1)
[35] = molecular target: HIV-1 Env of REJO.67 (HIV-1)
[36] = molecular target: HIV-1 Env of PVO.04 (HIV-1)
[37] = molecular target: HIV-1 Env of AC10.29 (HIV-1)
[38] = molecular target: HIV-1 Env of 6535.3 (HIV-1)
[39] = molecular target: HIV-1 Env of SC422.8 (HIV-1)
[40] = molecular target: HIV-1 Env of UG037.8 (HIV-1)
[41] = molecular target: HIV-1 Env of THRO.18 (HIV-1)
[42] = molecular target: HIV-1 Env of ZM249.1 (HIV-1)
[43] = molecular target: HIV-1 Env of CNE3 (HIV-1)
[44] = molecular target: HIV-1 Env of ZM109.4 (HIV-1)
[45] = molecular target: HIV-1 Env of TRO.11 (HIV-1)
[46] = molecular target: HIV-1 Env of ZM135.10a (HIV-1)
[47] = molecular target: HIV-1 Env of RW020.2 (HIV-1)
[48] = molecular target: HIV-1 Env of 0260.v5.c36 (HIV-1)
[49] = molecular target: HIV-1 Env of DU172.17 (HIV-1)

CAP256-VRC26.13 (antibody)
3.74 mg/L: IC50 [26]
> 50 mg/L: IC50 [1] | IC50 [2] | IC50 [3] | IC50 [4] | IC50 [5] | IC50 [6] | IC50 [7] | IC50 [9] | IC50 [10] | IC50 [11] | IC50 [12] | IC50 [13] | IC50 [15] | IC50 [16] | IC50 [17] | IC50 [18] | IC50 [19] | IC50 [20] | IC50 [21] | IC50 [22] | IC50 [23] | IC50 [24] | IC50 [25] | IC50 [27] | IC50 [28] | IC50 [29] | IC50 [30] | IC50 [31] | IC50 [32] | IC50 [34] | IC50 [35] | IC50 [36] | IC50 [37] | IC50 [38] | IC50 [39] | IC50 [40] | IC50 [41] | IC50 [42] | IC50 [43] | IC50 [44] | IC50 [45] | IC50 [46] | IC50 [47] | IC50 [48] | IC50 [49]
0.019 mg/L: IC50 [8]
0.039 mg/L: IC50 [14]
0.094 mg/L: IC50 [33]

CAP256-VRC26.15 (antibody)
10.4 mg/L: IC50 [21]
19.9 mg/L: IC50 [1]
0.192 mg/L: IC50 [23]
0.16 mg/L: IC50 [26]
11.7 mg/L: IC50 [27]
0.112 mg/L: IC50 [9]
0.153 mg/L: IC50 [30]
30 mg/L: IC50 [36]
0.019 mg/L: IC50 [33]
> 50 mg/L: IC50 [2] | IC50 [3] | IC50 [4] | IC50 [6] | IC50 [7] | IC50 [10] | IC50 [12] | IC50 [13] | IC50 [15] | IC50 [16] | IC50 [17] | IC50 [18] | IC50 [19] | IC50 [20] | IC50 [22] | IC50 [25] | IC50 [29] | IC50 [32] | IC50 [34] | IC50 [35] | IC50 [37] | IC50 [38] | IC50 [39] | IC50 [40] | IC50 [41] | IC50 [42] | IC50 [43] | IC50 [44] | IC50 [45] | IC50 [46] | IC50 [47] | IC50 [48] | IC50 [49]
0.338 mg/L: IC50 [11]
0.014 mg/L: IC50 [14]
0.008 mg/L: IC50 [8]
14.6 mg/L: IC50 [28]
0.04 mg/L: IC50 [5]
9.35 mg/L: IC50 [31]
0.657 mg/L: IC50 [24]

CAP256-VRC26.19 (antibody)
0.076 mg/L: IC50 [42]
15.6 mg/L: IC50 [1]
0.13 mg/L: IC50 [27]
2.98 mg/L: IC50 [37]
0.135 mg/L: IC50 [28]
0.039 mg/L: IC50 [26]
0.015 mg/L: IC50 [8]
14.5 mg/L: IC50 [10]
1.1 mg/L: IC50 [36]
0.431 mg/L: IC50 [25]
7.04 mg/L: IC50 [22]
0.025 mg/L: IC50 [33]
0.005 mg/L: IC50 [5]
2.16 mg/L: IC50 [24]
29.2 mg/L: IC50 [17]
1.34 mg/L: IC50 [21]
0.009 mg/L: IC50 [23]
0.16 mg/L: IC50 [31]
0.024 mg/L: IC50 [9]
0.057 mg/L: IC50 [30]
0.233 mg/L: IC50 [11]
> 50 mg/L: IC50 [2] | IC50 [3] | IC50 [4] | IC50 [6] | IC50 [7] | IC50 [12] | IC50 [13] | IC50 (neutralization, TZM-bl) [15] | IC50 [16] | IC50 [18] | IC50 [19] | IC50 [20] | IC50 [29] | IC50 [32] | IC50 [34] | IC50 [35] | IC50 [38] | IC50 [39] | IC50 [40] | IC50 [41] | IC50 (neutralization, TZM-bl) [43] | IC50 [45] | IC50 [46] | IC50 [47] | IC50 [48] | IC50 [49]
2.82 mg/L: IC50 [44]
0.02 mg/L: IC50 [14]

CAP256-VRC26.23 (antibody)
> 50 mg/L: IC50 [1] | IC50 [2] | IC50 [3] | IC50 [4] | IC50 [6] | IC50 [7] | IC50 [9] | IC50 [10] | IC50 [11] | IC50 [12] | IC50 [13] | IC50 (neutralization, TZM-bl) [15] | IC50 [16] | IC50 [17] | IC50 [18] | IC50 [19] | IC50 [20] | IC50 [21] | IC50 [22] | IC50 [23] | IC50 [24] | IC50 [25] | IC50 [26] | IC50 [27] | IC50 [28] | IC50 [29] | IC50 [30] | IC50 [31] | IC50 [32] | IC50 [34] | IC50 [35] | IC50 [36] | IC50 [37] | IC50 [38] | IC50 [39] | IC50 [40] | IC50 [41] | IC50 [42] | IC50 (neutralization, TZM-bl) [43] | IC50 [44] | IC50 [45] | IC50 [46] | IC50 [47] | IC50 [48] | IC50 [49]
10 mg/L: IC50 [5]
0.019 mg/L: IC50 [8] | IC50 [33]
0.028 mg/L: IC50 [14]

CAP256-VRC26.18 (antibody)
0.03 mg/L: IC50 [5]
5.31 mg/L: IC50 [24]
1.9 mg/L: IC50 [27]
10.4 mg/L: IC50 [17]
2.15 mg/L: IC50 [10]
1.42 mg/L: IC50 [9]
1.89 mg/L: IC50 [28]
5.4 mg/L: IC50 [30]
0.008 mg/L: IC50 [8]
0.037 mg/L: IC50 [23]
35 mg/L: IC50 [11]
0.028 mg/L: IC50 [26]
0.019 mg/L: IC50 [33]
> 50 mg/L: IC50 [1] | IC50 [2] | IC50 [3] | IC50 [4] | IC50 [6] | IC50 [7] | IC50 [12] | IC50 [13] | IC50 [15] | IC50 [16] | IC50 [18] | IC50 [19] | IC50 [20] | IC50 [21] | IC50 [22] | IC50 [25] | IC50 [29] | IC50 [31] | IC50 [32] | IC50 [34] | IC50 [35] | IC50 [36] | IC50 [37] | IC50 [38] | IC50 [39] | IC50 [40] | IC50 [41] | IC50 [42] | IC50 [43] | IC50 [44] | IC50 [45] | IC50 [46] | IC50 [47] | IC50 [48] | IC50 [49]
0.01 mg/L: IC50 [14]

Source: US20200199204A1
